Measured values: paper PMC2789664

How the values were obtained:
GAPDH D32A = GAPDH D32A (Homo sapiens, UniProt P04406 1-335, D35A); test: EMSA
GAPDH C149A = GAPDH C149A (Homo sapiens, UniProt P04406 1-335, C152A); test: EMSA
Sequence of GAPDH C149A (P04406 whole entry C152A): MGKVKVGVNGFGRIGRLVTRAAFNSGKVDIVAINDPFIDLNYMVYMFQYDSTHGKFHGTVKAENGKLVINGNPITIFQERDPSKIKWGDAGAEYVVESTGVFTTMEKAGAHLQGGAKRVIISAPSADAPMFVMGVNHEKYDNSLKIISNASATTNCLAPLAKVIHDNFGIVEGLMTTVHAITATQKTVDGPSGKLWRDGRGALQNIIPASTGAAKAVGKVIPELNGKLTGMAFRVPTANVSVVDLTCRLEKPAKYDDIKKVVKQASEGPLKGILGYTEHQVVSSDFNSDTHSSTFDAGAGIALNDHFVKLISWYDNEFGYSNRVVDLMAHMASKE

Sequence of GAPDH D32A (P04406 whole entry D35A): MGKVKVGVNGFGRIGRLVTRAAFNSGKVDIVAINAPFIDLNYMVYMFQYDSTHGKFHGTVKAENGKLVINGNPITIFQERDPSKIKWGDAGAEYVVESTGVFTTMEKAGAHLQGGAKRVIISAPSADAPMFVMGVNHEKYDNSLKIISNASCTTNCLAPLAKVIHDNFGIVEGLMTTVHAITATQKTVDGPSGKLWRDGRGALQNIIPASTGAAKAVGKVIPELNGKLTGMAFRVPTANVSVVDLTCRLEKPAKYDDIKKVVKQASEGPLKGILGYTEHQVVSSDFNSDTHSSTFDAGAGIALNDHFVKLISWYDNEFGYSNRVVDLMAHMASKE

AGGGTTAGGGTTAGGGTT (ssDNA) [ss-(AGGGTT)3]
binding result (GAPDH D32A): no binding
binding result (GAPDH C149A): no binding
